Results reported in patent US20230090487A1 (published 2023).
Changes are numbered by the printed parent chain.

Experiments:
[1] = biological target: T1, human IgE (myeloma IgE) (human, UniProt P01854-1 1-428); test: SPR (Biacore method); range told of the group, this end tied to H6.2 by paragraph 147
T1 construct: Myeloma IgE coupled by amine coupling to a CM5 chip for Biacore; Also used to sensitize human FcεRIα-expressing 3D10 cells; also called PS IgE
Description: (§1) The complementary determining region (CDR) sequences and the specificity-determining residues (SDR) of each heavy chain variable (VH) and light chain variable (VL) regions were engrafted into the framework (FR) regions of the most homologous human germline sequences. All the recombinant mAbs were transiently expressed in 293 cells in small scale (50 ml transfection volume) and purified by protein A affinity column for downstream application. The humanized mAbs not expressing or expressing <1 μg/ml recombinant antibody were eliminated. The affinity of humanized LAAIGE (hLAAIGE) to […] was determined by the surface plasmon resonance using Biacore T2000 instrument (Biacore AB, Uppsala, Sweden) with a CM5 sensor chip coupled with myeloma IgE by amine coupling. The purified hLAAIGEs were dissolved in HBS-EP assay buffer containing 0.15 M NaCl, 10 mM HEPES, pH 7.4, 3 mM EDTA, and 0.005% polysorbate 20. The solutions traversed the sensors at a flow rate of 50 μl/minute for binding analysis. Binding results were expressed in resonance units. Kinetic studies were analyzed with BIAevaluation Software Version 4.1. […] The binding of the selected hLAAIGE to the cell surface-bound IgE was confirmed using the human FcεRIα expressing 3D10 cells sensitized with myeloma IgE.

[2] = biological target: T1, human IgE (myeloma IgE); test: SPR, Biacore T2000, myeloma IgE amine-coupled to CM5 chip, antibody in solution
Description: as §1

[3] = biological target: T1, human IgE (myeloma IgE); test: SPR (Biacore method); range told of the group, this end tied to E14 by paragraph 147
Description: as §1

[4] = biological target: T1, human IgE (myeloma IgE); test: SPR, Biacore T2000; range told of the chosen antibodies, this end tied to S91 by paragraph 147
Description: as §1

[5] = biological target: T1, human IgE (myeloma IgE); test: binding affinity for human IgE; method not stated for the founders

T1 sequence (P01854 other isoform, or with tags, fused parts or gaps): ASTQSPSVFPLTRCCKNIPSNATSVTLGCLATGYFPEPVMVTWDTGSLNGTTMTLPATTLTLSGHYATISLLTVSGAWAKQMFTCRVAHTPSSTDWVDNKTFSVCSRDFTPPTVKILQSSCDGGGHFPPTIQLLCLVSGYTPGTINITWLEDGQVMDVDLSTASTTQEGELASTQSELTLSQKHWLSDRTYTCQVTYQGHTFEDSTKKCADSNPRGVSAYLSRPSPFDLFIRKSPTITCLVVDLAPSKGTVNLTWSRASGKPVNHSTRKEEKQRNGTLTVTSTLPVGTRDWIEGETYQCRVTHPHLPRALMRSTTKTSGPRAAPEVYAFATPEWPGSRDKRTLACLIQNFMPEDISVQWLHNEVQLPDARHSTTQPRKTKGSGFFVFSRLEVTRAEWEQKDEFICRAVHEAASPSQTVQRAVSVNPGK

B1: hLAAIGE H6.2 (antibody, human IgG1, lambda, V domains shown)
VH: QVQLGQSGGGVVQPGRSLRLSCAASGFTFSNYLIEWVRQAPGKGLEWVAVINPGSGFTKYNEKFKQRFTISRDNSKNTLYLQMNSLRAEDTAVYYCAREDVYSWFAYWGQGTLVTVSA
VL: QSALTQPASVSGSPGQSITISCTRASESVDSYGNSFMHQHHPGKAPKLMIYEVRTSNLESSNRFSGSKSGNTASLTISGLQAEDEADYYCSSQQSYEDPFTFGSGTKLGQPK
notes: The entries are labelled 'VH' and 'VL' but are full heavy (human IgG1) and lambda light chains; Humanized, derived from Founder P6.2
- Kd [1]: 50 µM
- Kd [2]: ~50 µM

B2: hLAAIGE E14 (antibody, human IgG1, kappa, V domains shown)
VH: QVQLVQSGSELKKPGASVKVSCKASGYTFTNYGMNWVRQAPGQGLEWMGWINTYTGEPTYADDFKGRFVFSLDTSVSTAYLQISSLKAEDTAVYYCARGAASHTMDYWGQGTTVTVSS
VL: DIVMTQSPDSLAVSLGERATINCRASQSVSTSAHSYMHWYQQKPGQPPKLLIYYASNLESGVPDRFSGSGSGTDFTLTISSLQAEDVAVYYCQHSWEIPWTFGQGTKLEIKR
notes: The entries are labelled 'VH' and 'VL' but are full heavy (human IgG1) and kappa light chains; Humanized, derived from Founder E17
- Kd [3]: 0.07 µM
- Kd [2]: 0.0672 µM

B3: hLAAIGE S91 (antibody, human IgG1, lambda, V domains shown)
VH: QVQLVQSGAEVKKPGASVKVSCKASGYTFTSYGISWVRQAPGQGLEWMGWISAYNGNTNYAQKLQGRVTMTTDTSTSTAYMELRSLRSDDTAVYYCARVSSWPYWYFDLWGRGTLVTVSS
VL: QSAVTQPPSASGSPGQSVTISCTGTSSDVGAYDYVSWYQQHPGKAPKLMIYEVSKRPSGVPDRFSGSKSGNTASLTVSGLQAEDEADYYCSSYAGRVDVFGGGTKLTVLG
notes: The entries are labelled 'VH' and 'VL' but are full heavy (human IgG1) and lambda light chains; Humanized, derived from Founder F11
- Kd [2]: 7.41 µM
- Kd [4]: 7 µM

B4: Founder P6.2 (low affinity anti-human IgE founder mouse mAb) (antibody, V domains shown)
VH: QVQLQQSGAELVRPGTSVKVSCKASGYAFTNYLIEWVKQRPGQGLEWIGVINPGSGFTKYNEKFKGKATLTADKSSSTAYMHLSSLTSDDSAVYFCAREDVYSWFAYWGQGTLVTVSA
VL: DIVLTQSPASLAVSLGQRATISCRASESVDSYGNSFMHWYQQKPGQPPKLLIYRTSNLESGIPARFSGSGSRTDFTLTINPVEADDVATYFCQQSYEDPFTFGSGTKLEIK
notes: Mouse hybridoma mAb
- Kd [5]: ~2.54 µM

B5: hLAAIGE E23 (antibody, human IgG1, kappa, V domains shown)
VH: B2 VH
VL: B2 VL with A33S, H34Y, E59K, S60A
notes: as for B2
- Kd [2]: 0.109 µM

B6: hLAAIGE E17 (antibody, human IgG1, kappa, V domains shown)
VH: B2 VH
VL: B2 VL with A33S, S35A
notes: Humanized clone E17, a different molecule from the mouse Founder E17; The entries are labelled 'VH' and 'VL' but are full heavy (human IgG1) and kappa light chains
- Kd [2]: 0.14 µM

B7: hLAAIGE E59 (antibody, human IgG1, kappa, V domains shown)
VH: B2 VH
VL: B2 VL with A33S
notes: Humanized, derived from Founder E17; Expressed in 293 cells
- Kd [2]: 0.164 µM
